Measured values reported in patent US12559560B2, “Antibody-based compositions for targeting tropomyosin receptor kinase B (TrkB) isoforms” (Fred Hutchinson Cancer Center, priority 2020, dated 2026).

How the values were obtained:
Format in all cases: binding
[1] = target: T1, full length TrkB.T1 protein (Mus musculus, UniProt P15209); assay: Wes capillary Western blot of mouse brain detergent extracts (antibody screening Stage 2); settings: normal and KO mouse brain detergent extracts; monoclonal culture super diluted 1:2
T1 construct: mouse brain lysates from TrkB.T1^+/+ and TrkB.T1^−/− mice were prepared by mechanical disruption; from tissue; host or cells: mouse brain (TrkB.T1+/+ wild type; TrkB.T1-/- as negative control)
Experimental: Wes™ capillary electrophoresis for antibody development. Protein Simple Wes™ was used at two stages of antibody screening: Stage 1, selecting immunized mice to advance for hybridoma generation, and Stage 2, for validation of monoclonal antibodies that Western blot full-length TrkB.T1 protein in murine brain detergent extracts. Briefly, mouse brain lysates from TrkB.T1^+/+ and TrkB.T1^−/− mice were prepared by mechanical disruption (Dounce tissue homogenizer, Kimble Chase) in RIPA lysis buffer (Pierce™ RIPA Lysis and Extraction Buffer, ThermoScientific™) containing HALT™ Protease and Phosphatase Inhibitor Cocktail and EDTA (ThermoScientific™) and normalized to 2 μg/μl total protein via Bradford Protein Assay. Approximately 8-10 ng total brain extract protein was loaded into the Protein Simple Capillary WES system for Western analysis following Protein Simple recommended methods (Rustandi, R. R., et al. Applications of an automated and quantitative CE-based size and charge western blot for therapeutic proteins and vaccines. Methods Mol. Biol. 1466, 197-217 (2016)). Mice with antisera (1:2500 dilution in PBS and Antibody Diluent (Protein Simple)) that identified a positive band at 90-100 kDa for the TrkB.T1 protein were advanced forward for final boosting, splenectomy, and hybridoma generation (FIG. 3B). […]

[2] = target: T2, TrkB.T1 (Mus musculus, UniProt P15209); assay: TrkB.T1 immunohistochemistry on mouse brain / mouse tumors
T2 construct: from tissue; host or cells: formalin-fixed paraffin-embedded mouse brain and RCAS/tv-a mouse gliomas
Experimental: (§1) Antibody validation phase—large batch IHC. Four-μm sections of a multi-tissue block containing human brain, mouse brain, TrkB.T1^−/− mouse brain, a cell pellet over-expressing TrkB.T1 and a cell pellet without TrkB.T1 were cut and stained with the Leica Bond Rx (Leica Biosystems, Buffalo Grove, IL). Slides were pretreated with H2 antigen retrieval buffer for 20 min. Endogenous peroxidase was blocked with 3% hydrogen peroxide for 5 min. A TCT protein block was applied for 10 min (0.05 M Tris, 0.15 M NaCl, 0.25% Casein, 0.1% Tween 20, pH 7.6). Supernatants from multiple boosting and pre-/post-fusion samples, along with antibody clone D12 were used at 1:20 and applied to the tissue for 30 min. The antibody was then detected using Leica Power Vision HRP Mouse specific polymer (Leica Biosystems catalog #PV6114) for 12 min and staining was visualized with Refine DAB (Leica Biosystems catalog #D59800) and a hematoxylin counterstain was used (Hematoxylin 50% in H2O from Biocare catalog #NM-HEM-M). Mouse isotype control slides were included for each run (Jackson ImmunoResearch Laboratories) at 2 μg/ml. Digital images of IHC-stained slides were obtained at ×40 magnification (0.25 μm/pixel) using a whole slide scanner (ScanScope AT Turbo, Aperio) fitted with a 20×/0.75 Plan Apo objective lens and ×2 magnification changer (Olympus, Center Valley, Pa., USA). […]

[3] = target: T3, TrkB.T1 (Homo sapiens, UniProt Q16620); assay: TrkB.T1 immunohistochemistry on human brain
T3 construct: To determine endogenous localization of TrkB.T1 in human brain, a monoclonal antibody; from tissue; host or cells: normal human brain (rapid autopsy, FFPE sections)
Experimental: as §1

T2 sequence (P15209 32-476 isoform P15209-2 limits assumed): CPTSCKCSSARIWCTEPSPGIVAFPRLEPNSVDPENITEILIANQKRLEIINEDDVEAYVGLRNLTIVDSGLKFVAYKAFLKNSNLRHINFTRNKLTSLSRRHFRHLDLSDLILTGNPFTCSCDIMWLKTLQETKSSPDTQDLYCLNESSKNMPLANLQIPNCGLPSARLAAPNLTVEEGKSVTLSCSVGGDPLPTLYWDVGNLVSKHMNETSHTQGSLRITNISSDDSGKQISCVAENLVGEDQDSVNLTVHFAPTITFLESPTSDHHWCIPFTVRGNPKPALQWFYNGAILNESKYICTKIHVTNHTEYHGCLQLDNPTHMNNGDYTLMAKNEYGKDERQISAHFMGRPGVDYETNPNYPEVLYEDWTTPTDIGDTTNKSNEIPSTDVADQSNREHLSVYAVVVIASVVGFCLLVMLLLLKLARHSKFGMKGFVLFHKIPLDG
T3 sequence (Q16620 32-477 isoform Q16620-2 limits assumed): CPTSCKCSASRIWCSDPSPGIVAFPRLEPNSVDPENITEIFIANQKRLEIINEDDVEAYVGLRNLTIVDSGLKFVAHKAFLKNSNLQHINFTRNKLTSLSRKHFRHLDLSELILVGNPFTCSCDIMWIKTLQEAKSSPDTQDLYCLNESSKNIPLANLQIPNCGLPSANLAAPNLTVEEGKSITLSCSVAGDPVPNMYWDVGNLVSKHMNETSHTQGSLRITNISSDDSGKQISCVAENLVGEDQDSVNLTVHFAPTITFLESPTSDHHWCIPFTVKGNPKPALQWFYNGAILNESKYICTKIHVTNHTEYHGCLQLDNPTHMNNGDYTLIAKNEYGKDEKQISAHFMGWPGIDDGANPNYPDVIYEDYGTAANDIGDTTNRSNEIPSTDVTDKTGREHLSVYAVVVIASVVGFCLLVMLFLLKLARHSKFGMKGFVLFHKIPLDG
T1 sequence (P15209 32-476 isoform P15209-2 limits assumed): as the sequence (P15209 32-476 isoform P15209-2 limits assumed) above

B1: Clone FH1D12: Murine monoclonal antibody to the TrkB.T1 C-terminal peptide … (SEQ ID NO:1), raised in TrkB.T1 null mice (antibody, V domains shown)
VL: QTVVTQESALTTSPGETVTLTCRSSTGAVTTSNYANWVQEKPDHLFTGLIGGINNRAPGVPARFSGSLIGDKAVLTITGAQTEDEAIYFCALWYSNHWVFGGGTKLTVL
VH: VQLQQSGPELARPWASVKISCQAFYTFSRGIHFDIRNTMYWIQWVKQRPGQGLEWIGAIYPGNGDPTYSQNFKDKATLTADKSSNTAYMQLSSLTSEDSAVYYCARYDYGGGFTYWGQGTLVTVSAGS
**Q.** What does the source list for B1?
**A.** Western blotting activity (full length TrkB.T1 protein) [1]: positive; staining in TrkB.T1-/- knockout mouse brain ([2]; TrkB.T1-/- knockout mouse brain (specificity control)): absent; immunostaining in wild-type (WT) mouse brain ([2]; wild-type mouse brain): positive; immunostaining in human brain [3]: positive
